The term Kd denotes the constant that tells how readily two partners part at equilibrium. Read a high Kd as weaker binding.

The target of assay [1] is GAS41 YEATS domain (residues 13–158), His6-tagged, 15N-labeled (human) (UniProt O95619). Nature of the assay: NMR titration.
In assay [2] the target is full-length GAS41, Avi-tagged, mono-biotinylated (human) (UniProt O95619). Nature of the assay: BLI. In general terms: Biolayer interferometry detects binding as a change in optical thickness at a sensor tip.
full-length GAS41, Avi-tagged, mono-biotinylated (human), sequence (O95619 whole entry, the tested form may be a part): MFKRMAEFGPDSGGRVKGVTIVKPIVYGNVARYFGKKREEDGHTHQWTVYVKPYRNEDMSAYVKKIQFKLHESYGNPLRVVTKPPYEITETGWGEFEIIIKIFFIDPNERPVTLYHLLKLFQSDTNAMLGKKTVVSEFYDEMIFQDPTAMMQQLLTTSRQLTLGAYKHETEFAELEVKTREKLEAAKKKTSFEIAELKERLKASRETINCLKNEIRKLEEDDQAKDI
The target in assay [3] is GST-tagged GAS41 YEATS (residues 1–148) (human) (UniProt O95619). Put plainly: ITC. A general note: Isothermal titration calorimetry measures the heat released or taken up as one component is titrated into another.
GST-tagged GAS41 YEATS (residues 1–148) (human), sequence (O95619 1-148): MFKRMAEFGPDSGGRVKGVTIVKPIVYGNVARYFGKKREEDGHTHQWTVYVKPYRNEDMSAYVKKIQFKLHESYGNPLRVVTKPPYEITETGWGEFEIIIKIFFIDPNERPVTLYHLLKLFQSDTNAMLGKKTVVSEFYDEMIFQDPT
Assay [4] deals with full-length GAS41, Avi-tagged, mono-biotinylated (human, UniProt O95619 1-227, biotin (mono-biotinylated on the Avi tag by BirA)). Put plainly: BLI.
full-length GAS41, Avi-tagged, mono-biotinylated, sequence (O95619 whole entry, the tested form may be a part): as the sequence (O95619 whole entry, the tested form may be a part) above
The target of assay [5] is GST-tagged GAS41 YEATS (residues 1–148) (human, UniProt O95619 1-148). Put plainly: ITC.
GST-tagged GAS41 YEATS (residues 1–148), sequence (O95619 1-148): as the sequence (O95619 1-148) above

Ends that are not written are not given here.

GAS41 YEATS domain (residues 13–158), His6-tagged, 15N-labeled (human), sequence (O95619 13-158): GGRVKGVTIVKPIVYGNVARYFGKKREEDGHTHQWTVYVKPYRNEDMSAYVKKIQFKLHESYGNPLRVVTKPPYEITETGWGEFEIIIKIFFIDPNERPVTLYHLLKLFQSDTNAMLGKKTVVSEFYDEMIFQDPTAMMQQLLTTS

In assay [1], “H3 peptide with succinylated K27 (H3K27su)” showed a Kd above 1000 µM.

With H3K14ac peptide, the Kd in assay [1] is 720 µM.

Take H3K18ac peptide: the figures for the Kd in assay [2] and in assay [1] were 36 µM and 106 µM, respectively.

In turn, H3K18acK27ac peptide registered a Kd in assay [2] of 3.2 µM. In addition, in assay [3], the Kd was determined as 12.5 µM and the stoichiometry N (peptide : YEATS domain) came to 0.5.

In assay [3], H3K23crK27cr peptide displayed a Kd of 11.1 µM and a stoichiometry N (peptide : YEATS domain) of 0.5.

Turning to H3K27ac peptide, the values for the Kd in assay [2], in assay [3] and in assay [1] were 81 µM, 39 µM and 58 µM, respectively. The same molecule showed a stoichiometry N (peptide : YEATS domain) in assay [3] of 1.

On to H3K27cr peptide, for which the Kd in assay [3] worked out at 23.4 µM; in assay [1], 34 µM.

On to tripeptide AKacA, for which the Kd in assay [1] came out at 1000 µM.

B1: H3K23acK27ac peptide (peptide)
chain: ATK(Ac)AARK(Ac)SAP
In the case of B1, the Kd was determined as 5 µM in assay [4] and 13.6 µM in assay [5].
